Patent US20090317396A1 (AJOU UNIVERSITY INDUSTRY ACADEMIC COOPERATION FOUNDATION, published 2009)

T1: DcR2 (UniProt Q9UBN6 56-211)
T1 construct: also called death decoy receptor 2
T1 sequence (looked up): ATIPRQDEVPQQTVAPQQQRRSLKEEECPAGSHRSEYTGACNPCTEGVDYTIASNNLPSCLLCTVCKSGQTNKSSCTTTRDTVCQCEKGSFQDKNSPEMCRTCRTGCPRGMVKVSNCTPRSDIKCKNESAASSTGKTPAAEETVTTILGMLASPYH

T2: TNFR2 (UniProt P20333 23-257)
T2 sequence (looked up): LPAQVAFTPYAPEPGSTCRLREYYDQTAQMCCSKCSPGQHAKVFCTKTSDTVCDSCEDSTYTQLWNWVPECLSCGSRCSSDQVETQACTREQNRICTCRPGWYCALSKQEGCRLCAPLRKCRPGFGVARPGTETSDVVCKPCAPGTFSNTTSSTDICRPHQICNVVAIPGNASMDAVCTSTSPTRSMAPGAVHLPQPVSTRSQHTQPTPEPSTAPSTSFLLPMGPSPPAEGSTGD

T3: CD95 (UniProt P25445 26-173)
T3 sequence (looked up): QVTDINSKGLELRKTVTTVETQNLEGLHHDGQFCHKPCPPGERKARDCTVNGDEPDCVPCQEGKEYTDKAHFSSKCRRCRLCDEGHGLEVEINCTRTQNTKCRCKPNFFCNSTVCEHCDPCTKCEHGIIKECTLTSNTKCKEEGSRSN

T4: death decoy receptor 1 (DcR1) (UniProt O14798 26-221, limits assumed)
T4 sequence (looked up): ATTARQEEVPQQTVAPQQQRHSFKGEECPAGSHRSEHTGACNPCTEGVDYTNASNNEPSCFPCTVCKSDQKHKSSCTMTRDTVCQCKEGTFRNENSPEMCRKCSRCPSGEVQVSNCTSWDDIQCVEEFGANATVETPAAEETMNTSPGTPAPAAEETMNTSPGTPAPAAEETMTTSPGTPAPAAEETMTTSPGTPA

T5: TNFR1 (UniProt P19438 30-211, limits assumed)
T5 sequence (looked up): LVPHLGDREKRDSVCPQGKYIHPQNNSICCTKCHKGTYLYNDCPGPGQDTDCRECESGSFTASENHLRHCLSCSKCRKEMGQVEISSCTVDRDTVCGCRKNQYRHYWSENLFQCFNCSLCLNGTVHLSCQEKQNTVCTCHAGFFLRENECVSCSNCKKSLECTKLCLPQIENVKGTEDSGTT

B1: HW6 anti-DR5 scFv antibody (scFv)
scFv: QVQLQQSGPGRVQPSQTLSLTCAISGDSVSNNNAAWYWIRQSPSRGLEWLGRTYYRSKWYNDYAVSVKSRITISPDTSKNQFSLQLNSVTPEDTAVYYCARRGDGNSYFDYWGQGTLVTVSSGILRWGRFGWRGLGRGWLEIVLTQSPGTLSLSPGERATLSCRASQSVSSGYVSWYRQKPGQAPRLLIYGASTRATGIPDRFSGSGSGTDFTLTISRLEPEDFAVYYCHQYGSSPNTYGQGTKVGIK
notes: Human scFv expressed in E. coli periplasm, purified, monomeric; not shown: C-terminal Flag tag from vector pKJ1; C-terminal 6xHis tag from vector pKJ1
B2: HW1 anti-DR5 scFv antibody (scFv)
scFv: QVQLQQSGPGLVKPSQTLSLTCAISGDSVSSTTVAWDWIRQSPSRGLEWLGRTYYRSKWYNEYAVSVKSRITINVDTSKNQISLQLNSVTPEDTAVYYCAREPDAGRGAFDIWGQGTTVTSPLRWGRFGWRGLGRGWLRSPVTQSPGTLSLSPGERATLSCRASQSVSSSHLAWYQQKPGQAPRLLIYGASSRATGIPDRFSGSGSGTDFTLTISSLEPEDFAVYYCQQRSNWPPRAVFGQGTRLEIK
notes: Human scFv expressed in E. coli periplasm (PelB signal removed on export), purified, monomeric; not shown: C-terminal Flag tag from vector pKJ1; C-terminal 6xHis tag from vector pKJ1

Tests used:
[1] = target: T1, DcR2; assay: SPR (Biacore 2000), antigen immobilised on CM5 chip
Description: (§1) The binding affinity of the anti-DR5 scFv antibody to DR5, and the cross-reactivities of the antibody with other antigens, DcR1, DcR2, DR4, TNFR1, TNFR2 and CD95 were determined by Biacore 2000 SPR (surface plasmon resonance) biosensor (Pharmacia, Sweden), respectively.

[2] = target: T2, TNFR2; assay: as above
Description: as §1

[3] = target: T6, death receptor 5 (DR5) (UniProt O14763 52-182, limits assumed); assay: SPR (Biacore 2000), DR5 immobilised on CM5 chip, scFv injected, 25° C.
T6 construct: Purified antigen immobilised on CM5 chip or coated on ELISA plates; also called TRAIL receptor 2; TRICK2
T6 sequence (O14763 52-182 limits assumed): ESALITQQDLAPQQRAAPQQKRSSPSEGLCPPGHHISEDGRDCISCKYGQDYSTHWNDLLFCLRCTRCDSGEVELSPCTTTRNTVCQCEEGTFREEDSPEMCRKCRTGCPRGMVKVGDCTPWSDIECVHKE
Description: as §1

[4] = target: T7, death receptor 4 (DR4) (UniProt O00220 24-239, limits assumed); assay: SPR (Biacore 2000): DR4 immobilised on a CM5 chip, HW6 injected
T7 construct: also called TRAIL receptor 1
T7 sequence (O00220 24-239 limits assumed): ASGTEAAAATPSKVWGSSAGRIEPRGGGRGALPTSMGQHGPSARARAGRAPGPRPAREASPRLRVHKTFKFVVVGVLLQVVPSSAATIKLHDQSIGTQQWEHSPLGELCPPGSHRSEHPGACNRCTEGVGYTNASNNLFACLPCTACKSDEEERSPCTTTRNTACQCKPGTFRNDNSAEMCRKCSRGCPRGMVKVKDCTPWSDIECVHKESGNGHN
Description: as §1

[5] = target: T3, CD95; assay: SPR (Biacore 2000): CD95 immobilised on a CM5 chip, HW6 injected
Description: as §1

[6] = target: T4, death decoy receptor 1 (DcR1); assay: SPR (Biacore 2000): DcR1 immobilised on a CM5 chip, HW6 injected
Description: as §1

[7] = target: T5, TNFR1; assay: SPR (Biacore 2000): TNFR1 immobilised on a CM5 chip, HW6 injected
Description: as §1

[8] = target: T7, death receptor 4 (DR4); assay: SPR (Biacore 2000), antigen immobilised on CM5 chip
Description: as §1

[9] = target: T3, CD95; assay: SPR (Biacore 2000): CD95 immobilised on a CM5 chip, HW1 injected
Description: as §1

[10] = target: T4, death decoy receptor 1 (DcR1); assay: SPR (Biacore 2000): DcR1 immobilised on a CM5 chip, HW1 injected
Description: as §1

[11] = target: T5, TNFR1; assay: SPR (Biacore 2000): TNFR1 immobilised on a CM5 chip, HW1 injected
Description: as §1

| Binder | binding result [1] | binding result [2] | Kd [3] | koff [3] | kon [3] | binding result [4] | binding result [5] | binding result [6] | binding result [7] | binding result [8] | binding result [9] | binding result [10] | binding result [11] |
| --- | --- | --- | --- | --- | --- | --- | --- | --- | --- | --- | --- | --- | --- |
| B1 | no binding (tested: up to 10 µM) | no binding (tested: up to 10 µM) | 54.5 nM | 0.00688 s⁻¹ | 126000 M⁻¹ s⁻¹ | no binding | no binding | no binding | no binding |  |  |  |  |
| B2 | no binding (tested: up to 10 µM) | no binding (tested: up to 10 µM) | 202 nM | 0.00471 s⁻¹ | 23300 M⁻¹ s⁻¹ |  |  |  |  | no binding (tested: up to 10 µM) | no binding | no binding | no binding |
